B1: THAP1; numbered along this chain (parent)
chain: MVQSCSAYGCKNRYDKDKPVSFHKFPLTRPSLCKEWEAAVRRKNFKPTKYSSICSEHFTPDCFKRECNNKLLKENAVPTIFLCTEPHDKKEDLLEPQEQLPPPPLPPPVSQVDAAIGLLMPPLQTPVNLSVFCDHNYTVEDTMHQRKRIHQLEQQVEKLRKKLKTAQQRCRRQERQLEKLKEVVHFQKEKDDVSERGYVILPNDYFEIVEVPA

Variants of: B1
Assay: THAP1 transcriptional activity (GFP+/GFP- enrichment relative to wild-type constructs) (ratio to WT); higher = more THAP1 activity (PSMB5 reporter activation)
Conditions: with PSMB5 promoter-GFP reporter
Method: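 Deep mutational scan of human THAP1. Site-saturation single amino acid variant library (residues 2-213) was expressed by lentivirus at MOI ~0.3 in THAP1-knockout HEK-293T cells carrying an endogenous PSMB5 promoter-GFP knock-in reporter. Five days post-transduction, BFP+ cells were FACS-sorted into GFP dim and GFP bright populations and variants were counted by Illumina sequencing. Activity is the GFP-bright/GFP-dim read fold change, mean of 2 replicates, divided by the mean fold change of wild-type (synonymous) constructs in the same screen pool; WT = 1.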
MVVSCSAYGCKNRYDKDKPVSFHKFPLTRPSLCKEWEAAVRRKNFKPTKYSSICSEHFTPDCFKRECNNKLLKENAVPTIFLCTEPHDKKEDLLEPQEQLPPPPLPPPVSQVDAAIGLLMPPLQTPVNLSVFCDHNYTVEDTMHQRKRIHQLEQQVEKLRKKLKTAQQRCRRQERQLEKLKEVVHFQKEKDDVSERGYVILPNDYFEIVEVPA [Q3V] gave a THAP1 transcriptional activity of 0.563.
MVNSCSAYGCKNRYDKDKPVSFHKFPLTRPSLCKEWEAAVRRKNFKPTKYSSICSEHFTPDCFKRECNNKLLKENAVPTIFLCTEPHDKKEDLLEPQEQLPPPPLPPPVSQVDAAIGLLMPPLQTPVNLSVFCDHNYTVEDTMHQRKRIHQLEQQVEKLRKKLKTAQQRCRRQERQLEKLKEVVHFQKEKDDVSERGYVILPNDYFEIVEVPA [Q3N] gave a THAP1 transcriptional activity of 0.442.
MVTSCSAYGCKNRYDKDKPVSFHKFPLTRPSLCKEWEAAVRRKNFKPTKYSSICSEHFTPDCFKRECNNKLLKENAVPTIFLCTEPHDKKEDLLEPQEQLPPPPLPPPVSQVDAAIGLLMPPLQTPVNLSVFCDHNYTVEDTMHQRKRIHQLEQQVEKLRKKLKTAQQRCRRQERQLEKLKEVVHFQKEKDDVSERGYVILPNDYFEIVEVPA [Q3T] showed a THAP1 transcriptional activity of 0.534.
In the case of MVRSCSAYGCKNRYDKDKPVSFHKFPLTRPSLCKEWEAAVRRKNFKPTKYSSICSEHFTPDCFKRECNNKLLKENAVPTIFLCTEPHDKKEDLLEPQEQLPPPPLPPPVSQVDAAIGLLMPPLQTPVNLSVFCDHNYTVEDTMHQRKRIHQLEQQVEKLRKKLKTAQQRCRRQERQLEKLKEVVHFQKEKDDVSERGYVILPNDYFEIVEVPA [Q3R], the THAP1 transcriptional activity is reported as 0.187.
In the case of MVSSCSAYGCKNRYDKDKPVSFHKFPLTRPSLCKEWEAAVRRKNFKPTKYSSICSEHFTPDCFKRECNNKLLKENAVPTIFLCTEPHDKKEDLLEPQEQLPPPPLPPPVSQVDAAIGLLMPPLQTPVNLSVFCDHNYTVEDTMHQRKRIHQLEQQVEKLRKKLKTAQQRCRRQERQLEKLKEVVHFQKEKDDVSERGYVILPNDYFEIVEVPA [Q3S], the THAP1 transcriptional activity is reported as 0.278.
MVWSCSAYGCKNRYDKDKPVSFHKFPLTRPSLCKEWEAAVRRKNFKPTKYSSICSEHFTPDCFKRECNNKLLKENAVPTIFLCTEPHDKKEDLLEPQEQLPPPPLPPPVSQVDAAIGLLMPPLQTPVNLSVFCDHNYTVEDTMHQRKRIHQLEQQVEKLRKKLKTAQQRCRRQERQLEKLKEVVHFQKEKDDVSERGYVILPNDYFEIVEVPA [Q3W] was tested, and the THAP1 transcriptional activity was 0.0989.
Variant MVYSCSAYGCKNRYDKDKPVSFHKFPLTRPSLCKEWEAAVRRKNFKPTKYSSICSEHFTPDCFKRECNNKLLKENAVPTIFLCTEPHDKKEDLLEPQEQLPPPPLPPPVSQVDAAIGLLMPPLQTPVNLSVFCDHNYTVEDTMHQRKRIHQLEQQVEKLRKKLKTAQQRCRRQERQLEKLKEVVHFQKEKDDVSERGYVILPNDYFEIVEVPA [Q3Y] has a THAP1 transcriptional activity of 0.149.
With MVPSCSAYGCKNRYDKDKPVSFHKFPLTRPSLCKEWEAAVRRKNFKPTKYSSICSEHFTPDCFKRECNNKLLKENAVPTIFLCTEPHDKKEDLLEPQEQLPPPPLPPPVSQVDAAIGLLMPPLQTPVNLSVFCDHNYTVEDTMHQRKRIHQLEQQVEKLRKKLKTAQQRCRRQERQLEKLKEVVHFQKEKDDVSERGYVILPNDYFEIVEVPA [Q3P] the THAP1 transcriptional activity was 0.186.
MVMSCSAYGCKNRYDKDKPVSFHKFPLTRPSLCKEWEAAVRRKNFKPTKYSSICSEHFTPDCFKRECNNKLLKENAVPTIFLCTEPHDKKEDLLEPQEQLPPPPLPPPVSQVDAAIGLLMPPLQTPVNLSVFCDHNYTVEDTMHQRKRIHQLEQQVEKLRKKLKTAQQRCRRQERQLEKLKEVVHFQKEKDDVSERGYVILPNDYFEIVEVPA [Q3M] showed a THAP1 transcriptional activity of 0.486.
MVQHCSAYGCKNRYDKDKPVSFHKFPLTRPSLCKEWEAAVRRKNFKPTKYSSICSEHFTPDCFKRECNNKLLKENAVPTIFLCTEPHDKKEDLLEPQEQLPPPPLPPPVSQVDAAIGLLMPPLQTPVNLSVFCDHNYTVEDTMHQRKRIHQLEQQVEKLRKKLKTAQQRCRRQERQLEKLKEVVHFQKEKDDVSERGYVILPNDYFEIVEVPA [S4H] gave a THAP1 transcriptional activity of 0.111.
In the case of MVQCCSAYGCKNRYDKDKPVSFHKFPLTRPSLCKEWEAAVRRKNFKPTKYSSICSEHFTPDCFKRECNNKLLKENAVPTIFLCTEPHDKKEDLLEPQEQLPPPPLPPPVSQVDAAIGLLMPPLQTPVNLSVFCDHNYTVEDTMHQRKRIHQLEQQVEKLRKKLKTAQQRCRRQERQLEKLKEVVHFQKEKDDVSERGYVILPNDYFEIVEVPA [S4C], the THAP1 transcriptional activity is reported as 0.233.
MVQDCSAYGCKNRYDKDKPVSFHKFPLTRPSLCKEWEAAVRRKNFKPTKYSSICSEHFTPDCFKRECNNKLLKENAVPTIFLCTEPHDKKEDLLEPQEQLPPPPLPPPVSQVDAAIGLLMPPLQTPVNLSVFCDHNYTVEDTMHQRKRIHQLEQQVEKLRKKLKTAQQRCRRQERQLEKLKEVVHFQKEKDDVSERGYVILPNDYFEIVEVPA [S4D] was tested, and the THAP1 transcriptional activity was 0.154.
MVQGCSAYGCKNRYDKDKPVSFHKFPLTRPSLCKEWEAAVRRKNFKPTKYSSICSEHFTPDCFKRECNNKLLKENAVPTIFLCTEPHDKKEDLLEPQEQLPPPPLPPPVSQVDAAIGLLMPPLQTPVNLSVFCDHNYTVEDTMHQRKRIHQLEQQVEKLRKKLKTAQQRCRRQERQLEKLKEVVHFQKEKDDVSERGYVILPNDYFEIVEVPA [S4G] gave a THAP1 transcriptional activity of 0.254.
Work on MVQICSAYGCKNRYDKDKPVSFHKFPLTRPSLCKEWEAAVRRKNFKPTKYSSICSEHFTPDCFKRECNNKLLKENAVPTIFLCTEPHDKKEDLLEPQEQLPPPPLPPPVSQVDAAIGLLMPPLQTPVNLSVFCDHNYTVEDTMHQRKRIHQLEQQVEKLRKKLKTAQQRCRRQERQLEKLKEVVHFQKEKDDVSERGYVILPNDYFEIVEVPA [S4I] yielded a THAP1 transcriptional activity of 0.182.
For MVQPCSAYGCKNRYDKDKPVSFHKFPLTRPSLCKEWEAAVRRKNFKPTKYSSICSEHFTPDCFKRECNNKLLKENAVPTIFLCTEPHDKKEDLLEPQEQLPPPPLPPPVSQVDAAIGLLMPPLQTPVNLSVFCDHNYTVEDTMHQRKRIHQLEQQVEKLRKKLKTAQQRCRRQERQLEKLKEVVHFQKEKDDVSERGYVILPNDYFEIVEVPA [S4P], the THAP1 transcriptional activity was 0.142.
With MVQWCSAYGCKNRYDKDKPVSFHKFPLTRPSLCKEWEAAVRRKNFKPTKYSSICSEHFTPDCFKRECNNKLLKENAVPTIFLCTEPHDKKEDLLEPQEQLPPPPLPPPVSQVDAAIGLLMPPLQTPVNLSVFCDHNYTVEDTMHQRKRIHQLEQQVEKLRKKLKTAQQRCRRQERQLEKLKEVVHFQKEKDDVSERGYVILPNDYFEIVEVPA [S4W] the THAP1 transcriptional activity was 0.171.
MVQFCSAYGCKNRYDKDKPVSFHKFPLTRPSLCKEWEAAVRRKNFKPTKYSSICSEHFTPDCFKRECNNKLLKENAVPTIFLCTEPHDKKEDLLEPQEQLPPPPLPPPVSQVDAAIGLLMPPLQTPVNLSVFCDHNYTVEDTMHQRKRIHQLEQQVEKLRKKLKTAQQRCRRQERQLEKLKEVVHFQKEKDDVSERGYVILPNDYFEIVEVPA [S4F] was tested, and the THAP1 transcriptional activity was 0.177.
MVQRCSAYGCKNRYDKDKPVSFHKFPLTRPSLCKEWEAAVRRKNFKPTKYSSICSEHFTPDCFKRECNNKLLKENAVPTIFLCTEPHDKKEDLLEPQEQLPPPPLPPPVSQVDAAIGLLMPPLQTPVNLSVFCDHNYTVEDTMHQRKRIHQLEQQVEKLRKKLKTAQQRCRRQERQLEKLKEVVHFQKEKDDVSERGYVILPNDYFEIVEVPA [S4R] gave a THAP1 transcriptional activity of 0.164.
Variant MVQTCSAYGCKNRYDKDKPVSFHKFPLTRPSLCKEWEAAVRRKNFKPTKYSSICSEHFTPDCFKRECNNKLLKENAVPTIFLCTEPHDKKEDLLEPQEQLPPPPLPPPVSQVDAAIGLLMPPLQTPVNLSVFCDHNYTVEDTMHQRKRIHQLEQQVEKLRKKLKTAQQRCRRQERQLEKLKEVVHFQKEKDDVSERGYVILPNDYFEIVEVPA [S4T] has a THAP1 transcriptional activity of 0.966.
In the case of MVQQCSAYGCKNRYDKDKPVSFHKFPLTRPSLCKEWEAAVRRKNFKPTKYSSICSEHFTPDCFKRECNNKLLKENAVPTIFLCTEPHDKKEDLLEPQEQLPPPPLPPPVSQVDAAIGLLMPPLQTPVNLSVFCDHNYTVEDTMHQRKRIHQLEQQVEKLRKKLKTAQQRCRRQERQLEKLKEVVHFQKEKDDVSERGYVILPNDYFEIVEVPA [S4Q], the THAP1 transcriptional activity is reported as 0.114.
Work on MVQMCSAYGCKNRYDKDKPVSFHKFPLTRPSLCKEWEAAVRRKNFKPTKYSSICSEHFTPDCFKRECNNKLLKENAVPTIFLCTEPHDKKEDLLEPQEQLPPPPLPPPVSQVDAAIGLLMPPLQTPVNLSVFCDHNYTVEDTMHQRKRIHQLEQQVEKLRKKLKTAQQRCRRQERQLEKLKEVVHFQKEKDDVSERGYVILPNDYFEIVEVPA [S4M] yielded a THAP1 transcriptional activity of 0.201.
MVQECSAYGCKNRYDKDKPVSFHKFPLTRPSLCKEWEAAVRRKNFKPTKYSSICSEHFTPDCFKRECNNKLLKENAVPTIFLCTEPHDKKEDLLEPQEQLPPPPLPPPVSQVDAAIGLLMPPLQTPVNLSVFCDHNYTVEDTMHQRKRIHQLEQQVEKLRKKLKTAQQRCRRQERQLEKLKEVVHFQKEKDDVSERGYVILPNDYFEIVEVPA [S4E] gave a THAP1 transcriptional activity of 0.103.
With MVQKCSAYGCKNRYDKDKPVSFHKFPLTRPSLCKEWEAAVRRKNFKPTKYSSICSEHFTPDCFKRECNNKLLKENAVPTIFLCTEPHDKKEDLLEPQEQLPPPPLPPPVSQVDAAIGLLMPPLQTPVNLSVFCDHNYTVEDTMHQRKRIHQLEQQVEKLRKKLKTAQQRCRRQERQLEKLKEVVHFQKEKDDVSERGYVILPNDYFEIVEVPA [S4K] the THAP1 transcriptional activity was 0.127.
MVQYCSAYGCKNRYDKDKPVSFHKFPLTRPSLCKEWEAAVRRKNFKPTKYSSICSEHFTPDCFKRECNNKLLKENAVPTIFLCTEPHDKKEDLLEPQEQLPPPPLPPPVSQVDAAIGLLMPPLQTPVNLSVFCDHNYTVEDTMHQRKRIHQLEQQVEKLRKKLKTAQQRCRRQERQLEKLKEVVHFQKEKDDVSERGYVILPNDYFEIVEVPA [S4Y] showed a THAP1 transcriptional activity of 0.123.
Variant MVQNCSAYGCKNRYDKDKPVSFHKFPLTRPSLCKEWEAAVRRKNFKPTKYSSICSEHFTPDCFKRECNNKLLKENAVPTIFLCTEPHDKKEDLLEPQEQLPPPPLPPPVSQVDAAIGLLMPPLQTPVNLSVFCDHNYTVEDTMHQRKRIHQLEQQVEKLRKKLKTAQQRCRRQERQLEKLKEVVHFQKEKDDVSERGYVILPNDYFEIVEVPA [S4N] has a THAP1 transcriptional activity of 0.14.
MVQVCSAYGCKNRYDKDKPVSFHKFPLTRPSLCKEWEAAVRRKNFKPTKYSSICSEHFTPDCFKRECNNKLLKENAVPTIFLCTEPHDKKEDLLEPQEQLPPPPLPPPVSQVDAAIGLLMPPLQTPVNLSVFCDHNYTVEDTMHQRKRIHQLEQQVEKLRKKLKTAQQRCRRQERQLEKLKEVVHFQKEKDDVSERGYVILPNDYFEIVEVPA [S4V] gave a THAP1 transcriptional activity of 0.187.
Variant MVQACSAYGCKNRYDKDKPVSFHKFPLTRPSLCKEWEAAVRRKNFKPTKYSSICSEHFTPDCFKRECNNKLLKENAVPTIFLCTEPHDKKEDLLEPQEQLPPPPLPPPVSQVDAAIGLLMPPLQTPVNLSVFCDHNYTVEDTMHQRKRIHQLEQQVEKLRKKLKTAQQRCRRQERQLEKLKEVVHFQKEKDDVSERGYVILPNDYFEIVEVPA [S4A] has a THAP1 transcriptional activity of 0.338.
With MVQLCSAYGCKNRYDKDKPVSFHKFPLTRPSLCKEWEAAVRRKNFKPTKYSSICSEHFTPDCFKRECNNKLLKENAVPTIFLCTEPHDKKEDLLEPQEQLPPPPLPPPVSQVDAAIGLLMPPLQTPVNLSVFCDHNYTVEDTMHQRKRIHQLEQQVEKLRKKLKTAQQRCRRQERQLEKLKEVVHFQKEKDDVSERGYVILPNDYFEIVEVPA [S4L] the THAP1 transcriptional activity was 0.241.

— the supplement of paper PMC11811203
